Here are results for four molecules from PMC6366424, “Development of a novel, high-affinity ssDNA trypsin inhibitor”.

Common to all, as to conditions: protein: commercial
For series [1], the target named is T1, bovine trypsin (Bos taurus (bovine), UniProt P00760 24-246). Nature of the series: enzyme inhibition (mixed mode); BAPNA, TAAB, 37 C; ELISA/pull-down: PBS pH 7.4, 5 mM MgCl2, 10 mM KCl, 0.01% Tween20, RT; SPR and inhibition (TAAB): 0.1 M Tris pH 7.5, 150 mM NaCl, 5 mM CaCl2, 10 mM KCl, 5 mM MgCl2, 0.02% Tween 20; inhibition at 37 C (full-length aptamer screen in selection buffer at RT). Background: ELISA stands for enzyme-linked immunosorbent assay.

The target in series [2] is T1, bovine trypsin. Nature of the series: bead pull-down; ELISA/pull-down: PBS pH 7.4, 5 mM MgCl2, 10 mM KCl, 0.01% Tween20, RT; SPR and inhibition (TAAB): 0.1 M Tris pH 7.5, 150 mM NaCl, 5 mM CaCl2, 10 mM KCl, 5 mM MgCl2, 0.02% Tween 20; inhibition at 37 C (full-length aptamer screen in selection buffer at RT).
Series [3] has as its target T1, bovine trypsin. Nature of the series: SPR; kon 1.03e6 M-1s-1, koff 3.15e-3 s-1; TAAB; ELISA/pull-down: PBS pH 7.4, 5 mM MgCl2, 10 mM KCl, 0.01% Tween20, RT; SPR and inhibition (TAAB): 0.1 M Tris pH 7.5, 150 mM NaCl, 5 mM CaCl2, 10 mM KCl, 5 mM MgCl2, 0.02% Tween 20; inhibition at 37 C (full-length aptamer screen in selection buffer at RT). Background: Surface plasmon resonance follows binding to a sensor surface in real time, without labels.

T1 sequence (P00760 24-246): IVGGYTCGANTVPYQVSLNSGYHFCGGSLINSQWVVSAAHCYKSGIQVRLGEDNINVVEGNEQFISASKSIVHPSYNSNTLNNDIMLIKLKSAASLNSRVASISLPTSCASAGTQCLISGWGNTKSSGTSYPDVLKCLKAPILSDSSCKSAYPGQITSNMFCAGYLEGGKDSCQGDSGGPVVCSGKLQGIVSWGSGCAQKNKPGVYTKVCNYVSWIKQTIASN

B1: T59 (ssDNA)
DNA: CATGCTTCCCCAGGGAGATGGGTGTGAGGTTAGTTTGCGGTCCTGGCAAAGGGGGGCCTGGAGGAACATG
Consider B1, for which the Ki (as a rule, the equilibrium dissociation constant of an inhibitor or competing ligand from its target) with bovine trypsin [1] worked out at 475 ± 48 nM.

B2: T21 (ssDNA)
DNA: CATGCTTCCCCAGGGAGATGGGTGTGGGGTTAGGTCACTTTATGGTTGGTTCCATTGTGTCAGGGAGCCGGGAGGAACATGCGTCGCAAAC
On to B2, for which the binding result with bovine trypsin [2] is on record as “binds”.

B3: T22 (ssDNA)
DNA: CATGCTTCCCCAGGGAGATGGGTGTGAGGTTAGGAAATCTGTGTTGAACACTGCTTTCAGGGGGCTTGGGAGGAACATGCGTCGCAAAC
B3: the binding result with bovine trypsin [2] is given as “binds”.

B4: T24 (ssDNA)
DNA: CATGCTTCCCCAGGGAGATGGGTGTGAGGTTAGTTTGCGGGAACTAGAATTCCTGGCAAAGGGGGGCCTGGAGGAACATGCGTCGCAAAC
As for B4, the Kd (as a rule, the equilibrium constant for the complex coming apart) with bovine trypsin [3] was determined as 3.06 nM. In the series with bovine trypsin [1], this molecule yielded a Ki of 176 ± 16 nM.
